Reference: FireProtDB (doi:10.1016/s0022-2836(03)00725-3)
Several values for one entry are separate records, joined by “and”; a condition that tells them apart may be missing. Equal entries are not always repeated.

Settings: Escherichia coli (strain K12), pH 7.4, Thermal, DSC, sodium phosphate 10 mM, transition: 3, reversible: yes, whole UniProt chain shown

B1: DNA-binding protein HU-alpha wild type, P0ACF0 (protein)
chain: MNKTQLIDVIAEKAELSKTQAKAALESTLAAITESLKEGDAVQLVGFGTFKVNHRAERTGRNPQTGKEIKIAAANVPAFVSGKALKDAVK
- heat capacity change of unfolding (NaCl 1 M): 0.55 kcal/mol/K and 0.9 kcal/mol/K
- unfolding enthalpy (calorimetric) (NaCl 1 M): 49.7 kcal/mol and 39.3 kcal/mol and 33.7 kcal/mol
- Tm (NaCl 1M): 69 °C
- heat capacity change of unfolding (NaCl 1M): 0.55 kcal/mol/K
- unfolding enthalpy (calorimetric) (NaCl 1M): 42.8 kcal/mol
